Entries after “also recorded” stand apart in the source; their conditions may differ.
Experiments:
MTDH-SND1 interaction = target: T1, MTDH-SND1 interaction (Homo sapiens, UniProt Q7KZF4); test: Immunoprecipitation assay: elution or co-incubation with MTDH peptides, western blot; format: biochemical; details: 50 uM of peptides; IP of HA-SND1 from 293T (HA-SND1 + MYC-MTDH) and of endogenous SND1 from MDA-MB-231
T1 construct: Full-length HA-tagged SND1 was co-expressed with full-length Myc-tagged wild-type (WT) or mutant MTDH in HEK293T cells; expressed in transfected cells; host or cells: 293T
T1 sequence (Q7KZF4 1-910): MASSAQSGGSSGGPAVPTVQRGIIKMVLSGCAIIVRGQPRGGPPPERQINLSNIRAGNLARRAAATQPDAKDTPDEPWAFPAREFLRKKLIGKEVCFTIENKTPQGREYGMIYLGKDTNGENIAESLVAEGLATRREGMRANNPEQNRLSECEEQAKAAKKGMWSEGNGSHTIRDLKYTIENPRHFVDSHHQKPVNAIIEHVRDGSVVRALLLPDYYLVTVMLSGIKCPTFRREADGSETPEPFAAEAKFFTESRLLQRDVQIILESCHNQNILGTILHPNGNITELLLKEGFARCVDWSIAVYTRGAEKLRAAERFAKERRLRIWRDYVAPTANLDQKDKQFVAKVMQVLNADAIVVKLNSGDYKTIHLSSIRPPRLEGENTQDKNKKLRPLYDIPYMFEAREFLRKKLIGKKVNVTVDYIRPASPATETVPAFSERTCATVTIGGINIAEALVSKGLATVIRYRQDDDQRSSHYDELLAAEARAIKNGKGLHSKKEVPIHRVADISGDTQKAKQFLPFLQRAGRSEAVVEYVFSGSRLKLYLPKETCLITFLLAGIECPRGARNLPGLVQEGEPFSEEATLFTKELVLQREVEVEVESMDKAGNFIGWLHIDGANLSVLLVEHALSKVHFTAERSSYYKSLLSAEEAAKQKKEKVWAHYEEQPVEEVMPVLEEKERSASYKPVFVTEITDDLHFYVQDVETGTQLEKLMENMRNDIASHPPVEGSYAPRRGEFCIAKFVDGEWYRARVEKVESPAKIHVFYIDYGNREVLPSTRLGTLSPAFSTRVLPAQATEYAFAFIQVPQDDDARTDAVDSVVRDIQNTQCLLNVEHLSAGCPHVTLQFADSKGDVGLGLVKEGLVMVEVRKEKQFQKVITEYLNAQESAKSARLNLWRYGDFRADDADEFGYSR
Method: 293T cells co-transfected with HA-SND1 and MYC-MTDH. After 48 hr cells were collected and subjected to IP assay. (FIG. 26A, FIG. 26B) Cell lysate was incubated with anti-HA antibody or IgG overnight followed by 2 hr incubation with Protein A/G beads to pull down HA-SND1 protein. The beads was washed with lysis buffer and split into 5 fractions. Each fraction was eluted with buffer or indicated peptides for 30 min. The elution fractions and beads were collected for WB. (FIG. 26C, FIG. 26D) Cell lyaste was split into 6 fractions, one of them was incubated with IgG and the rest were incubated with anti-HA antibody plus either buffer or indicated peptides. After 24 hr, the lysate was incubated with Protein A/G beads then the beads were washed in wash buffer.
Breast cancer cells MDA-MB231 were collected and subjected to IP assay. (FIG. 27A) Cell lysate was incubated with anti-SND1 antibody or IgG overnight followed by 2 hr incubation with Protein A/G beads to pull down endogenous SND1 protein. The beads were washed with lysis buffer and split into 5 fractions. Each fraction was eluted with buffer or indicated peptides for 30 min. The elution fractions and beads were collected for WB. (FIG. 27B) Cell lyaste was split into 5 fractions, and incubated with anti-SND1 antibody plus either buffer or indicated peptides. After 24 hr, the lysate was incubated with Protein A/G beads then the beads were washed in wash buffer.
293 T cells were co-transfected with HA-SND1 and MYC-MTDH. After 48 hours, the cells were collected and subject to immunoprecipitation assay. Cell lysate was incubated with anti-HA antibody or IgG overnight followed by a two hour incubation with Protein A/G beads to pull down HA-SND1 protein. The beads were washed with lysis buffer and split into five fractions. Each fraction was eluted with buffer or indicated peptides (i.e., Peptide—wt (PNSDWNAPAEEWGNW, SEQ ID NO: 16); Peptide-394A (PNSDANAPAEEWGNW, SEQ ID NO: 17); Peptide-401A (PNSDWNAPAEEAGNW, SEQ ID NO: 18) and Peptide-MT (PNSDANAPAEEAGNW, SEQ ID NO: 19) for 30 minutes.
The elution fractions and beads were collected for western blot. (FIGS. 26C and 26D) Cell lyaste was split into 6 fractions. One of the fractions was incubated with IgG and the rest were incubated with anti-HA antibody plus either buffer or indicated peptides. After 24 hours, the lysate was incubated with Protein A/G beads then the beads was washed followed by wash buffer. 50 uM of peptides was used in all the assays.
The interaction interruption effects was confirmed by endogenous immunoprecipitation (IP) of a breast cancer cell line. Briefly, cell lysates from the breast cancer cell line MDA-MB-231 were collected and subjected to IP assay. […]

SND1 = target: T2, SND1 (Mus musculus, UniProt Q78PY7); test: Anti-MTDH immunoprecipitation from PyMT;Mtdh−/− tumor cells reconstituted with murine MTDH; format: cell-based; details: stably expressed in PyMT;Mtdh−/− tumor cells
T2 construct: endogenous in cells; host or cells: PyMT;Mtdh−/− (A9) or PyMT;Mtdh+/+ (A13) mouse mammary epithelial/tumor cells
T2 sequence (Q78PY7 1-910): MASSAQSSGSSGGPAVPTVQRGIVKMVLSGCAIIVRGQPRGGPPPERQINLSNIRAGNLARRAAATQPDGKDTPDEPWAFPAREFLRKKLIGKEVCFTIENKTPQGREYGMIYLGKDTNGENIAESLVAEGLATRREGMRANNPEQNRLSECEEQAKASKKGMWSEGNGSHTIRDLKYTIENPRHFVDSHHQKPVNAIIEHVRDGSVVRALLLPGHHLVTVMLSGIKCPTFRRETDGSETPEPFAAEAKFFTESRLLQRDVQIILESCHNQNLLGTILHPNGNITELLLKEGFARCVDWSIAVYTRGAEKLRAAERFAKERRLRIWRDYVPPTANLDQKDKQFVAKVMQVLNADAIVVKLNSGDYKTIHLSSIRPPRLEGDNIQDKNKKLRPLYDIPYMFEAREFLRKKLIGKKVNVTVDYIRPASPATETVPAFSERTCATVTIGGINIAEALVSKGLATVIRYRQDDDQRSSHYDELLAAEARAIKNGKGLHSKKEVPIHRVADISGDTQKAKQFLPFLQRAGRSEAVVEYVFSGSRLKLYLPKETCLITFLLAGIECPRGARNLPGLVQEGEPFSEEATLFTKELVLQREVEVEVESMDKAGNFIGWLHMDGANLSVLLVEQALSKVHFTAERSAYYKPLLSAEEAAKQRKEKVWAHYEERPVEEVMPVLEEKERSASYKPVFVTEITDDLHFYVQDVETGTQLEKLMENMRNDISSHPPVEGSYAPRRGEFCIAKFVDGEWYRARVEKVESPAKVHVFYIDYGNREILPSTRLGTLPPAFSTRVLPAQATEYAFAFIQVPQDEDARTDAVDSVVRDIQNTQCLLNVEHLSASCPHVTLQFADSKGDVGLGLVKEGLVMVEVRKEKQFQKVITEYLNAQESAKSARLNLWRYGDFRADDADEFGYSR
Method: (FIG. 8A, FIG. 8E) Lysates from PyMT;Mtdh−/− MECs reconstituted with vector control, WT or mutant murine MTDH were immunoprecipitated with anti-MTDH antibody and immunoblotted for indicated proteins. (FIG. 8B, FIG. 8F) Mammosphere assays were performed with PyMT;Mtdh−/− pMECs reconstituted with indicated Mtdh constructs. (FIG. 8C, FIG. 8D, FIG. 8G, FIG. 8H) In vivo tumor formation (FIG. 8C, FIG. 8G for tumor incidence; FIG. 8D, FIG. 8H for tumor volumes) were performed at limiting numbers using PyMT;Mtdh−/− pMECs reconstituted with indicated WT or mutant MTDH. *Note: mouse W391D MTDH corresponds to human W394D MTDH; and mouse W398D MTDH corresponds to human W401D MTDH. Statistics: (FIG. 8B, […]) Student's t-test. (FIG. 8C, FIG. 8G) Limiting dilution analysis. (FIG. 8D, FIG. 8H) Mann-Whitney test. Data represent mean±SEM. ***p<0.001, **p<0.01, *p<0.05.
(FIG. 23A) Lysates from PyMT;Mtdh−/− tumor cells reconstituted with vector control, WT or mutant murine MTDH were immunoprecipitated with anti-MTDH antibody and immunoblotted for indicated proteins. Note all amino acid annotations are based on human MTDH. W394 and W401 of human MTDH correspond to W391 and W398 in murine MTDH, respectively. (FIG. 23B) Mammosphere assays were performed with PyMT;Mtdh−/− tumor cells reconstituted with indicated MTDH constructs. (FIG. 23C-E) In vivo tumor formation (FIG. 23C for tumor incidence; FIG. 23D, FIG. 23E for tumor volumes) were performed at limiting numbers using PyMT;Mtdh−/− tumor cells reconstituted with indicated WT or mutant MTDH. Statistics: (FIG. 23B) Student's t-test. Data represent mean±SEM. (FIG. 23C) Limiting dilution analysis. (FIG. 23D, FIG. 23E) Mann-Whitney test. **p<0.01, *p<0.05.
Immunoprecipitation and western blot For immunoprecipitation (IP) experiments, cultured cells were washed in cold PBS and lysed in lysis buffer (20 mM Tris pH 7.4, 0.15 M NaCl, 1 mM EDTA, 1 mM EGTA, 1% Tx-100, 0.0025 M Na2P2O7, 1 mM α-glycerolphosphate, 1 mM Na3VO4, and 1 mM NaF) with an EDTA-free protease inhibitor mixture (Roche Applied Science) and PMSF. Cell lysates were then incubated on ice for 10 min, centrifuged, and precleared by incubating with protein A/G beads (Santa Cruz Biotechnology) for 1 h at 4° C. For IP bead preparation, 30 μl of protein A/G beads were incubated with 5 μg of antibodies for 2 h at 4° C. IPs were carried out for overnight at 4° C., and beads were centrifuged, washed and subsequently boiled for 5 min in SDS protein loading buffer to elute bound protein. IP lysates were subjected to western blotting with indicated antibodies. […]

Molecule	block of MTDH-SND1 interaction by peptide (MTDH-SND1 interaction)	interaction of murine MTDH mutants with SND1 (SND1)
PNSDWNAPAEEAGNW (listed as Homo sapiens)	reduced the effectiveness of the wild type peptide by half	–
PNSDANAPAEEAGNW (listed as Homo sapiens) [double point mutation]	have no effect in interrupting the interaction of MTDH with SND1	–
PNSDWNAPAEEWGNW (listed as Homo sapiens) [wild type MTDH peptide]	can effectively block MTDH-SND1 interaction; also recorded: significant block MTDH-SND1 interaction	–
PNSDANAPAEEWGNW (listed as Homo sapiens) [single point mutation W394A]	have no effect in interrupting the interaction of MTDH with SND1	–
murine W401A: murine MTDH mutant W398A, corresponding to human W401A (protein) MAARSWQDELAQQAEEGSARLRELLSVGLGFLRTELGLDLGLEPKRYPGWVILVGTGALGLLLLFLLGYGWAAACAGARKKRRSPPRKREEAAPPTPAPDDLAQLKNLRSEEQKKKNRKKLPEKPKPNGRTVEVPEDEVVRNPRSITAKQAPETDKKNEKSKKNKKKSKSDAKAVQNSSRHDGKEVDEGAWETKISHREKRQQRKRDKVLTDSGSLDSTIPGIENIITVTTEQLTTASFPVGSKKNKGDSHLNVQVSNFKSGKGDSTLQVSSRLNENLTVNGGGWSEKSVKLSSQLSEEKWNSVPPASAGKRKTEPSAWTQDTGDTNANGKDWGRNWSDRSIFSGIGSTAEPVSQSTTSDYQWDVSRNQPYIDDEWSGLNGLSSADPSSDWNAPAEEAGNWVDEDRASLLKSQEPISNDQKVSDDDKEKGEGALPTGKSKKKKKKKKKQGEDNSHTQDTEDLEKDTREELPVNTSKARPKQEKACSLKTMSTSDPAEVLIKNSQPVKTLPPAISAEPSITLSKGDSDNSSSQVPPMLQDTDKPKSNAKQNSVPPSQTKSETNWESPKQIKKKKKARRET	–	completely lost the ability to interact with SND1

From patent publication US10357539B2, “Use of peptides that block metadherin-SND1 interaction as treatment for cancer” (THE TRUSTEES OF PRINCETON UNIVERSITY, priority 2014, dated 2019)
